Assay results: US20240287172A1 (SCIRHOM, published 2024)

T1: hiR2-FL-S561A-T7 (human, UniProt Q6PJF5 1-856)
T1 sequence: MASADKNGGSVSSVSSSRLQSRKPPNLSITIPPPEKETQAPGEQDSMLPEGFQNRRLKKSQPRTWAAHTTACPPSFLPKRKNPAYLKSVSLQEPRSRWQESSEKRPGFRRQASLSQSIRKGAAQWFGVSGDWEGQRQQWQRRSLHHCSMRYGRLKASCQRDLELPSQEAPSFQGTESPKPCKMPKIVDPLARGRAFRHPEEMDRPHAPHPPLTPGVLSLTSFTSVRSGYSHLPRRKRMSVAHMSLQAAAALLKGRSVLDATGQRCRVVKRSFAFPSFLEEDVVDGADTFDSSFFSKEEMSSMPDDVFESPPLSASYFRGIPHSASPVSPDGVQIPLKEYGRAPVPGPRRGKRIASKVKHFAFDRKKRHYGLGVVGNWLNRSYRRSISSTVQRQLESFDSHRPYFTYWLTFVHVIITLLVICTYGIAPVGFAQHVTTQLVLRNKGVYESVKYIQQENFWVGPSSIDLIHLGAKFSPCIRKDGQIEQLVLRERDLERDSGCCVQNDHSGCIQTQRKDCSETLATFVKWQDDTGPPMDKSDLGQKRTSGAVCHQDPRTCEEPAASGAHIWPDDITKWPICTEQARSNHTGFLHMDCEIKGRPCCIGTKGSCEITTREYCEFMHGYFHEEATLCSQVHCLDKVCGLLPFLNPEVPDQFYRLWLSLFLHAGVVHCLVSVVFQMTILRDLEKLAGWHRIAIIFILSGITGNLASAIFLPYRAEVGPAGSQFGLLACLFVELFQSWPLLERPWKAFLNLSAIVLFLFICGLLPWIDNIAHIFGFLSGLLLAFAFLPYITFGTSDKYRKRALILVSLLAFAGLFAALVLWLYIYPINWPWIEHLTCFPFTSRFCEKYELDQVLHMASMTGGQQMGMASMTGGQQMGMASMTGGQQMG

T2: hiR2-FL-D535A-T7 (human, UniProt Q6PJF5 1-856)
T2 sequence: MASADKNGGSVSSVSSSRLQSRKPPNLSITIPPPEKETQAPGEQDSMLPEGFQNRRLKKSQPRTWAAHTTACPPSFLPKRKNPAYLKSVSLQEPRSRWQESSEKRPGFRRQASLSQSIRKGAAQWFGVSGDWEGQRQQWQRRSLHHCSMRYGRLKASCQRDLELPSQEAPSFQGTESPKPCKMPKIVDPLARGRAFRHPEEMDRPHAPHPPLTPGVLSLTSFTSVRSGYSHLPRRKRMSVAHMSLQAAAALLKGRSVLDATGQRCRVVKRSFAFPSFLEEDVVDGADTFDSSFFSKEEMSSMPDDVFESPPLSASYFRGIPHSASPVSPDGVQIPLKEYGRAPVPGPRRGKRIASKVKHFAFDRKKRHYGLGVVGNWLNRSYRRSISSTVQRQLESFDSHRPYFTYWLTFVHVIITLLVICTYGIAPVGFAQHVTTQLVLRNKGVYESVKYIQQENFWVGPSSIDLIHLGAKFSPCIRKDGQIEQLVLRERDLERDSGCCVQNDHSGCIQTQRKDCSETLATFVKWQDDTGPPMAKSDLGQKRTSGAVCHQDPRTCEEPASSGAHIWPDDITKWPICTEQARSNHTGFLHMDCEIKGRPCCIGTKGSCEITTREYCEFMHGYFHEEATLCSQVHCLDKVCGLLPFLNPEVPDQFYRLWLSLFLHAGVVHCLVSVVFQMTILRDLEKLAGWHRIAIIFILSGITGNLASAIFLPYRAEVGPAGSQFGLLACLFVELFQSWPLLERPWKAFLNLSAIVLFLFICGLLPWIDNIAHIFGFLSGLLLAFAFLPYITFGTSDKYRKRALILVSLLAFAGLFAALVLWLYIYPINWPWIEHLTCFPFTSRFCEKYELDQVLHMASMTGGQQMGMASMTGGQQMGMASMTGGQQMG

B1: antibody 34 (antibody, V domains shown)
VH: QVTLKESGPGILQPSQTLSLTCSFSGFSLSTFSLGVGWIRQSSGKGLEWLAHIWWDDEKYYNPALKSRLTISKDTSKNQVFLKIANVDAADTATYYCARAYYSKSYYALDYWGQGTSVTVSS
VL: DIQMTQSPSSLSASLGERVSLTCRASQEISGYLSWLQQKPDGTIKRLIYAASTLDSGVPKRFSGSRSGSDYSLAISSLESEDFADYYCLQYANFPFTFGSGTKLEIK
notes: mouse IgG, kappa light chain; also called clone #34; purified antibody 34
B2: antibody 3 (antibody, V domains shown)
VH: QVTLKESGPGILQPSQTLSLTCSFSGFSLTTFAMGIGWVRQPSGKGLEWLAHIWWDGEKYNNPVLKSRLTISKDTSKNQVFLRIANVDTPDTATYYCARISSIYYIIDNWGQGTSVTVSS
VL: DIVLTQSPATLSVTPGHSVSLSCRASQSISNNLHWYQKKSHESPRLLIKYVSQSISGIPSRFSGSGSGTDFTLSINSVETEDFGMYFCQQSYNWPLTFGAGTKLELK
notes: mouse IgG, kappa light chain; also called clone #3; purified antibody 3
B3: antibody 5 (antibody, V domains shown)
VH: QVTLKESGPGILQPSQTLSLTCSFSGFSLSTFGMGVGWIRQPSGKGLEWLAHIWWDDEKYYNSALKSRLTISKATSKNQAFLKIANVDTADTATYYCARISNYGSNYWYFNVWGTGTTVTVSS
VL: QVVLTQSPALMSASPGEKVTMTCSAGSSVSCMYWYQQKPGSSPRVLIYDTSNLASGVPARFTGSGSGTSYSLTISRMEAEDAASYYCQQWNSYPLTFGAGTKLELK
notes: mouse IgG, kappa light chain; also called clone #5; purified antibody 5
B4: antibody 44 (antibody, V domains shown)
VH: QVTLKESGPGILQPSQTLSLTCSFSGFSLSTFGMGVGWIRQPSEKGLEWLAHIWWDDDKYYNPALKSRLTISKDTSKNQIFLKITNVDTAETATYYCSRIGNYGSNYWYFDVWGTGTTVTVSS
VL: QIVLTQSPAVMSASPGEKVTMTCTASSSVYYMYWYQQTPGSSPRLLIYDTSNLASGVPVRFSGSGSGTSYSLTISRMEAEDAATYYCQQWNTYPLTFGAGTKLELK
notes: mouse IgG, kappa light chain; also called clone #44; purified antibody 44
B5: antibody 43 (antibody, V domains shown)
VH: QVALKESGPGILQPSQTLSLTCSFSGFSLSTFGMGVGWIRQSSGKGLEWLANIWWDDDKYYNPALKSRLTISKDASKNQAFLKIANVDTADTATYYCARIGNYGSNYWYFDVWGTGTTVTVSS
VL: QIVLTQSPAIMSASPGERVTMTCSANSRISYMYWYQQKPGSSPRLLIYDTSNLASGVPVRFSGSGSGTSYSLTISRMEAEDAATYNCQQWSSYPLTFGAGTKLELK
notes: mouse IgG, kappa light chain; also called clone #43; purified antibody 43
B6: antibody 42 (antibody, V domains shown)
VH: QVTLKESGPGILQPSQTLSLTCSLSGFSLSTFGRGVGWIRQPSGKGLEWLAHIWWDDEKYYNPALKSRLTISKDTSKNQVFLRIANVDTADTATYYCARIQNYGSNYWYFDVWGTGTTVTVSS
VL: LIVLTQSPAIMSASPGEKVTMTCGATSRISYMFWYQQKPGSSPRVLIYDTSNLASGVPVRFSGSGSGTSYSLTISRVEAEDVATYYCQQWNSYPLTFGAGTKLELK
notes: mouse IgG, kappa light chain; also called clone #42; purified antibody 42
B7: antibody 22 (antibody, V domains shown)
VH: QVTLKESGPGILQPSQTLSLTCSFSGFSLSTFGMGVGWIRQPSGKGLEWLAHIWWDDEKYYNSALKSRLTISKATSKNQVFLKIANVDTADTATYYCARISNYGSNYWYFNVWGTGTTVTVSS
VL: QVVLTQSPALMSASPGEKVTMTCSAGSSVSYMYWYQQKPGSSPRVLIYDTSNLASGVPARFTGSGSGTSYSLTISRMEAEDAATYYCQQWNSYPLTFGAGTKLELK
notes: mouse IgG, kappa light chain; also called clone #22; purified antibody 22

How the values were obtained:
hiR2-FL-S561A-T7 = target: T1, hiR2-FL-S561A-T7; assay: FACS on MEF-DKO cells expressing the variant, 3 µg/ml antibody
Description: (§1) To pellet cells and remove supernatants, the plates were centrifuged at 1,500 rpm and 4° C. for 3 minutes. For primary staining, cells were resuspended in 100 μl per well of either FACS buffer alone (controls) or the purified antibodies 3, 5, 16, 22, 34, 42, 43, 44, 48, and 50 of the invention at 3 μg/ml in FACS buffer and incubated on ice for 1 hour. Afterwards, plates were centrifuged at 1,500 rpm and 4° C. for 3 minutes and washed twice with 200 μl per well of FACS buffer. For secondary staining, cells were spun down and resuspended in 100 μl per well of PE-conjugated goat anti-mouse IgG F(ab′)2 detection fragment (Dianova, Germany) diluted 1:100 in FACS buffer. Protected from light, the cell suspensions were incubated on ice for 1 hour. Plates were then centrifuged at 1,500 rpm and 4° C. for 3 minutes and washed three times with 200 μl per well of FACS buffer. Finally, cells were resuspended in 150 μl per well of FACS buffer and analyzed using a BD Accuri™ C6 Plus flow cytometer (Becton Dickinson, Germany).

hiR2-FL-D535A-T7 = target: T2, hiR2-FL-D535A-T7; assay: as above
Description: as §1

Binder	loss of binding vs wild type (hiR2-FL-S561A-T7) [%]	loss of binding vs wild type (hiR2-FL-D535A-T7) [%]
B1	≥ 30	≥ 30
B2	≥ 30	≥ 60
B3	≥ 30	≥ 60
B4	≥ 30	≥ 30
B5	≥ 30	–
B6	≥ 30	≥ 30
B7	≥ 30	≥ 30
